Where “and” joins values, the source holds several entries; their conditions need not be identical. Equal entries are not always repeated.

In the assay the target is PSD95, endogenous, from mouse brain lysate (mouse (endogenous in mouse brain)) (UniProt Q62108). The assay can be described thus: co-IP.
Chain of PSD95, endogenous, from mouse brain lysate (mouse (endogenous in mouse brain)) (Q62108 whole entry): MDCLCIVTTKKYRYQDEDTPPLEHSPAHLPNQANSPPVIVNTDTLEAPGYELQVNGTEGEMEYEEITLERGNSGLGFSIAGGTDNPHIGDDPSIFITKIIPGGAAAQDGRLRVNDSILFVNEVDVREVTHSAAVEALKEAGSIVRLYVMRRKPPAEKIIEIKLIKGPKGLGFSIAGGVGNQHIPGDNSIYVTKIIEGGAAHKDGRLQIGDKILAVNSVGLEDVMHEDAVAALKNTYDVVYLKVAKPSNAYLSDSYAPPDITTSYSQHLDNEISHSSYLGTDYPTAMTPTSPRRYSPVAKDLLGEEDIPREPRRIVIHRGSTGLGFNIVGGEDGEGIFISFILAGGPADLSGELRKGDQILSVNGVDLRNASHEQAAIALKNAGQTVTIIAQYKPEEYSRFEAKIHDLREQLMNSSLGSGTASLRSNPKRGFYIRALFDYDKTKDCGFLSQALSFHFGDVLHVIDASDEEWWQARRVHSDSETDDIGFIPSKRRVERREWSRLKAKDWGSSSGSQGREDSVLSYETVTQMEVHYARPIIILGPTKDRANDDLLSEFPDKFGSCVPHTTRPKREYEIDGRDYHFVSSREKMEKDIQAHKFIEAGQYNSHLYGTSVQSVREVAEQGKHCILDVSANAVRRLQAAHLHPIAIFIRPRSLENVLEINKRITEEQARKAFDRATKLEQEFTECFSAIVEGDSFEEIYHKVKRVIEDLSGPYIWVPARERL

Chain of Phosphorylated Sept7 (pT426), endogenous, from mouse brain lysate (O55131 2-436): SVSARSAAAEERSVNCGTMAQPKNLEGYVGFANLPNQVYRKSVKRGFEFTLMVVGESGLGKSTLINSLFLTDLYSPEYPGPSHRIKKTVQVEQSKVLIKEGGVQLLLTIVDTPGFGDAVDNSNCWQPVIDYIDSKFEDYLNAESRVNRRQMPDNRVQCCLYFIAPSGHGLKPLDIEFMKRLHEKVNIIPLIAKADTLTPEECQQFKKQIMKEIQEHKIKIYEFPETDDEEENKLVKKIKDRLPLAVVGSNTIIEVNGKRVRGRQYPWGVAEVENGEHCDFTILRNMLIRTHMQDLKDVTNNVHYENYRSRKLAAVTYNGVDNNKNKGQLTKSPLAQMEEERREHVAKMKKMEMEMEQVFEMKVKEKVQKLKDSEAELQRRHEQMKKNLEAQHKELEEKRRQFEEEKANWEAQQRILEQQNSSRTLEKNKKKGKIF

Regarding “Phosphorylated Sept7 (pT426), endogenous, from mouse brain lysate (from UniProt O55131 1-436) (natural protein)”, the percent of endogenous Sept7 pulled down with PSD95 is 10% and 15%.

The record behind these values is article PMC5267388.
